Numbering of substitutions follows the chain as printed. Names and notes keep the numbering of the source.
T1: Human IL-2Rα/β/γ complex (high affinity IL-2 receptor) (human, UniProt P01589 22-272; P14784 27-551; P31785 23-369)
T1 construct: whole, on cells
T1 sequence (looked up) 1: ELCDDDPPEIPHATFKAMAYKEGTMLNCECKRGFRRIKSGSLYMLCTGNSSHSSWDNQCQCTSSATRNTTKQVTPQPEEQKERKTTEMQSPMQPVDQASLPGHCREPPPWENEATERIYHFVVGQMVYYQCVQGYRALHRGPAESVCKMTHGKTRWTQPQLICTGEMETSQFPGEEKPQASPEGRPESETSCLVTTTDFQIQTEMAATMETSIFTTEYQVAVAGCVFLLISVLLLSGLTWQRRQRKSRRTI
T1 sequence (looked up) 2: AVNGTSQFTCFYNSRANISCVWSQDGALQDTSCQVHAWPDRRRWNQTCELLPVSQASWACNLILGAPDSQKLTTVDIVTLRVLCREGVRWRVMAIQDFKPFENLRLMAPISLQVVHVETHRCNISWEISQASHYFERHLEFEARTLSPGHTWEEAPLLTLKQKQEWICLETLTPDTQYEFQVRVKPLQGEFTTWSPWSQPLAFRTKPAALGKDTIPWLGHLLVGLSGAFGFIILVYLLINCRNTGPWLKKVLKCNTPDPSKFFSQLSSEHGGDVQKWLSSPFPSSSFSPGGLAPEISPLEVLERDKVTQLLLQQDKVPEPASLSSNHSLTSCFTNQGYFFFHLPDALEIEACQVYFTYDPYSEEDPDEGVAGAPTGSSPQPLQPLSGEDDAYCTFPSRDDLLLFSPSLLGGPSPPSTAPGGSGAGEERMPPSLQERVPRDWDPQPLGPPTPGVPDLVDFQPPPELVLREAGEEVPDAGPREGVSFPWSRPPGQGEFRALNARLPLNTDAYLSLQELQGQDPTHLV
T1 sequence (looked up) 3: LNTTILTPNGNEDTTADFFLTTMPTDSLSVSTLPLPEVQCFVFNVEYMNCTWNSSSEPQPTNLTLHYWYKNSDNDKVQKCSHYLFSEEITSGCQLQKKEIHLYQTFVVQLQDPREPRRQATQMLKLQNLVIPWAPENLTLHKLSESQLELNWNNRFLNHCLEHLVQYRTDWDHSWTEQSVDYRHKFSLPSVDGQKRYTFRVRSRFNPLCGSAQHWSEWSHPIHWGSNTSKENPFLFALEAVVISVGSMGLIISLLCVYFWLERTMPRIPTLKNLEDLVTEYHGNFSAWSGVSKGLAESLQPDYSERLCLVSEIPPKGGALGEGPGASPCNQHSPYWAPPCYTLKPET

T2: Human IL-2Rβ/γ (intermediate affinity IL-2 receptor) (human, UniProt P14784 27-551; P31785 23-369)
T2 construct: whole, on cells; also called IL-2Rβ/γc; IL-2Rβ (CD122) and γ (CD132)
T2 sequence (looked up) 1: T1 sequence (looked up) 2
T2 sequence (looked up) 2: T1 sequence (looked up) 3

B1: W3XX115-T2U0.E44-26.uIgG4V1 (Fc fusion)
chain: APTSSSTKKTQLQLEHLLLDLQMILNGINNYKNPKLTRMLTFKFYMPKKATELKHLQCLEEELKPLEEVLNLAQSKNFHLRPRDLISNINVIVLELKGSETTFMCEYADETATIVEFLNRWITFCQSILESKYGPPCPPCPAPEFLGGPSVFLFPPKPKDTLMISRTPEVTCVVVDVSQEDPEVQFNWYVDGVEVHNAKTKPREEQFNSTYRVVSVLTVLHQDWLNGKEYKCKVSNKGLPSSIEKTISKAKGQPREPQVYTLPPCQEEMTKNQVSLWCLVKGFYPSDIAVEWESNGQPENNYKTTPPVLDSDGSFFLYSRLTVDKSRWQEGNVFSCSVMHEALHNHYTQKSLSLSLG
heavy: EIQLQQSGPELVKPGASVKVSCKASGYSFTDYNMYWVKQSHGESLEWIGYIDPYNGGTRYNQKFKGKATLTVDKSSSTAFMHLNSLTSEDSAVYYCARNGHWDGAWFAYWGQGTLVTVSAASTKGPSVFPLAPCSRSTSESTAALGCLVKDYFPEPVTVSWNSGALTSGVHTFPAVLQSSGLYSLSSVVTVPSSSLGTKTYTCNVDHKPSNTKVDKRVESKYGPPCPPCPAPEFLGGPSVFLFPPKPKDTLMISRTPEVTCVVVDVSQEDPEVQFNWYVDGVEVHNAKTKPREEQFNSTYRVVSVLTVLHQDWLNGKEYKCKVSNKGLPSSIEKTISKAKGQPREPQVCTLPPSQEEMTKNQVSLSCAVKGFYPSDIAVEWESNGQPENNYKTTPPVLDSDGSFFLVSRLTVDKSRWQEGNVFSCSVMHEALHNHYTQKSLSLSLG
light: DIQMNQSPSSLSASLGDTITITCHASQNINVWLSWYQQKPGNIPKLLIYKASNLHTGVPSRFSGSRSGTGFTLTISSLQPEDIATYYCHQGQSYPFTFGSGTKLEIKRTVAAPSVFIFPPSDEQLKSGTASVVCLLNNFYPREAKVQWKVDNALQSGNSQESVTEQDSKDSTYSLSSTLTLSKADYEKHKVYACEVTHQGLSSPVTKSFNRGEC
notes: IL-2 del STLT and I129L; E44 format, IgG4
B2: W3XX115-T2U0.E44-27.uIgG4V1 (Fc fusion)
chain: B1 chain with L129V
heavy: B1 heavy
light: B1 light
notes: IL-2 del STLT and I129V; E44 format, IgG4
B3: W3XX115-T2U0.E44-28.uIgG4V1 (Fc fusion)
chain: B1 chain with L129A
heavy: B1 heavy
light: B1 light
notes: IL-2 del STLT and I129A; E44 format, IgG4
B4: W3XX115-T2U0.E44-29.uIgG4V1 (Fc fusion)
chain: B1 chain with L129S
heavy: B1 heavy
light: B1 light
notes: IL-2 del STLT and I129S; E44 format, IgG4

Legend:
[1] = biological target: T1, Human IL-2Rα/β/γ complex (high affinity …); assay: FACS, MJ20 cells; EC50 fold vs T2U0.E44-1
Procedure: (§1) Human cutaneous T cell lymphoma HH cells, malignant non-Hodgkin's lymphoma NK92 cells and cutaneous T cell lymphoma MJ20 cells were used for binding assay. They both constitutively express IL-2Rβ (CD122) and […] (CD132), and NK92 and MJ20 also expresses IL-2Rα (CD25). HH, NK92 and MJ20 cells were cultured following ATCC guidance, then transferred to a 96-plate for binding analysis. Cells were incubated with IL-2/Fc fusion proteins at the indicated concentrations for 30 min at 4° C. to avoid internalization. Binding was detected by 2nd antibody of PE-anti-human Fc at 4° C. for another 30 min. The median fluorescence intensity (MFI) on HH and NK92 cells was measured using FACS.
(§2) Affinity of IL-2 variants to IL-2Rα/β/γ supported the same results (FIG. 8 and Table 7). […] And T2U0.E44-26, T2U0.E44-27, T2U0.E44-29 and T2U0.E44-30 induced hundreds to thousands affinity reduction in Treg compared to T2U0.E44-1. Binding curves in MJ20 cells (IL-2Rα/β/γ) also achieved similar trend (FIG. 8b). As a result, the method of C-terminal truncation and substitution of 129 was available to achieve IL-2Rβγ attenuated IL-2 variants.

[2] = biological target: T2, Human IL-2Rβ/γ (intermediate affinity …); assay: FACS, HH cells; EC50 fold vs T2U0.E44-1
Procedure: as §1

[3] = biological target: T1, Human IL-2Rα/β/γ complex (high affinity …); assay: FACS, MJ20 cells
Procedure: as §1, §2

[4] = biological target: T1, Human IL-2Rα/β/γ complex (high affinity …); assay: cell-based or functional assay
[5] = biological target: T2, Human IL-2Rβ/γ (intermediate affinity …); assay: cell-based or functional assay
[6] = biological target: T2, Human IL-2Rβ/γ (intermediate affinity …); assay: FACS, HH cells
Procedure: as §1

Binder	Affinity reduction [1]	Affinity reduction [2]	EC50 [3]	Potency in human Treg EC50 [4]	Potency reduction (Treg) [4]	Potency in human CD8+ T EC50 [5]	Potency reduction (CD8+ T) [5]	EC50 [6]
B1	3.1 fold	18.5 fold	42.8 nM	1.16 nM	460 fold	649 nM	32.5 fold	993 nM
B2	5.4 fold	51.1 fold	75.3 nM	1.85 nM	737 fold	371 nM	18.5 fold	2740 nM
B3	7.4 fold	15.6 fold	103 nM	0.095 nM	37.6 fold	446 nM	22.3 fold	839 nM
B4	17 fold	28.8 fold	233 nM	3.76 nM	1490 fold	406 nM	20.3 fold	1550 nM
